Changes are numbered by the printed parent chain. Names may count otherwise.
B1: α4-N79C, not HA-tagged (natural protein)
chain: MSGYDRALSIFSPDGHIFQVEYALEAVKRGTCAVGVKGKNCVVLGCERRSTLKLQDTRITPSKVSKIDSHVVLSFSGLCADSRILIEKARVEAQSHRLTLEDPVTVEYLTRYVAGVQQRYTQSGGVRPFGVSTLIAGFDPRDDEPKLYQTEPSGIYSSWSAQTIGRNSKTVREFLEKNYDRKEPPATVEECVKLTVRSLLEVVQTGAKNIEITVVKPDSDIVALSSEEINQYVTQIEQEKQEQQEQDKKKKSNH
B2: α4-C32A C46A N79C (natural protein)
chain: B1 chain with C32A, C46A

Molecular target: Rpt2-L437C (S. cerevisiae, UniProt P40327 1-437, L437C)
Experiment: cross-linking

Rpt2-L437C, sequence (P40327 whole entry L437C): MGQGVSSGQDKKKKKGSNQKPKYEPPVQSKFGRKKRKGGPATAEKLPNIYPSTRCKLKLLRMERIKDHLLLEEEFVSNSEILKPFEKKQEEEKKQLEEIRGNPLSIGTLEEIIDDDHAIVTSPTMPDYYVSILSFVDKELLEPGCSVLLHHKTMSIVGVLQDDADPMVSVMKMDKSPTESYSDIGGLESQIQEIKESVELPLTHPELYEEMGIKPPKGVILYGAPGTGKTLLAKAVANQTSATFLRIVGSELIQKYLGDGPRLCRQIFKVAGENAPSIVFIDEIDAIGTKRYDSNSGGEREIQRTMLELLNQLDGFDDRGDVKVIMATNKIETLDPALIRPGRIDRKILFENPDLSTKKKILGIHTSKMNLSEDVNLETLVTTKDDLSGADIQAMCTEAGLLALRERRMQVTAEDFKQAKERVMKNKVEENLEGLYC

Binder	binding result
B1	binds
B2	binds

Source: PMC3210322 (Nature structural & molecular biology, 2011)
